Assay results published in FireProtDB (doi:10.1021/bi00165a022).

Conditions: Escherichia phage lambda, Thermal, DSC, Potassium phosphate 20 nM, whole UniProt chain shown

B1: Regulatory protein cro wild type, P03040 (protein)
chain: MEQRITLKDYAMRFGQTKTAKDLGVYQSAINKAIHAGRKIFLTINADGSVYAEEVKPFPSNKKTTA
Tm (pH 5.18): 35.5 °C
heat capacity change of unfolding (pH 5.18): 1.51 kcal/mol/K
unfolding enthalpy (calorimetric) (pH 5.18): 34.9 kcal/mol
unfolding enthalpy (van 't Hoff) (pH 5.18): 37.3 kcal/mol
Tm (pH 5.48): 38 °C
heat capacity change of unfolding (pH 5.48): 1.61 kcal/mol/K
unfolding enthalpy (calorimetric) (pH 5.48): 39 kcal/mol
unfolding enthalpy (van 't Hoff) (pH 5.48): 40.7 kcal/mol
Tm (pH 6): 44 °C
heat capacity change of unfolding (pH 6): 1.66 kcal/mol/K
unfolding enthalpy (calorimetric) (pH 6): 48.1 kcal/mol
unfolding enthalpy (van 't Hoff) (pH 6): 51 kcal/mol
Tm (pH 7): 46.2 °C
heat capacity change of unfolding (pH 7): 1.36 kcal/mol/K
unfolding enthalpy (calorimetric) (pH 7): 52.9 kcal/mol
unfolding enthalpy (van 't Hoff) (pH 7): 52.4 kcal/mol
